Source: the nanobody polyreactivity screen of Harvey et al. (2022)

experiment: yeast display, Sf9 membrane polyspecificity reagent, FACS + sequencing; frameworks hold sequencing errors
Procedure, shortened: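 Nanobodies came from a synthetic yeast display library in Saccharomyces cerevisiae BJ5465, induced with galactose for 36–48 hours and stained for 1 hour at 4 °C with 10% biotinylated, detergent-solubilized Sf9 membrane reagent. Cells were enriched on streptavidin microbeads and then FACS-sorted, with low and high (top ~1%) gates set on anti-HA fluorescence for expression and streptavidin fluorescence for reagent binding. Each polyreactivity label reflects the gate a clone came from. Genes were amplified by colony PCR, sequenced by MiSeq 2 × 250 and filtered by CDR length.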

Sequence | polyreactivity (PSR sort gate)
QVQHVESGGGLVQAGGSLRVSCAASGFIFSAYAMGRYRKATGKERELVAAISSGGSTYYADSVKGRFTISRDNAKNTVYLQMNSLKPEDTEVYYCAAVYTGRYRYDYWGQGTHVTVSS | low polyreactivity
QVQHVESGGGLVQAGGSLSLRCAASGSTLPYYAMGGYRPAPGKEREFVAAISSSGGSTYYADSVKGRFTISRDNAKYTVYLQMNSLKPEDTAVYYCNAVLYARQRDRWARYDYWGQGTQVTVSS | high polyreactivity
QVQHVESGGGLVQAGSLRLSCAASGSTFPYNAMGWYREAPGKERELVATISWSGGSTYYADSVKGRFTISRDNAKNTVYLQMNSLKPEDTAVYYCNATYGSSYDYWGQGTQVTVSS | low polyreactivity
QVQHVESGGGLVQAVGSLRLSFAASGSIFRGYAMGGYRPAPGKERELVAAIRYSGARTYYADSVKGRFTISRDNAKNTVYLQMNSLKPEDTAVYYCNARSYSRTHYDYWGQGTQVTVSS | high polyreactivity
QVQHVESGGGLVQEGGSLRLSCAASGITFGRNTMGWYRQAPGKERELVAAIDSGGNTYADSVKGRFTISRDNAKNTVYLQMNSLKPVDTAVYSCAVDGGEFSSYGYWGQGTQVTVSS | low polyreactivity
QVQHVESGGGLVQPGGSLRLSCAASGYTFYANAMGWYRQAPGKEREFVASITWSGGSSYYADSVKGRFTISRDNAKNTVYLHLNSLKPEDTAVYYCAAESWFKYDYWGQGTQVTLSS | low polyreactivity
QVQHVESGGGVVQAGRSLRLRCDASGFILWYYTMGWYRPAPGKERELVAAISRGGTTYYADSVKGRFTISRDNAKKSVYLQMTSLKPEDTAVYYCNAPDNTHGIVLYDYWGQGTQVTVSS | low polyreactivity
QVQHVESGGRLVQAGGSLRLSCAASGRTFPQYAMGWYRQAPGKERELVAAITSGDSTNYSDSVKGRFTISRDNAKNTVYLQMNSLKPEDTAVYYCAAVYYYSKWYTPYEDVYWGQGTQVTVSS | low polyreactivity
QVQHVESGRGLVQAGGILRLSCAASGRIFRMNAMGWYRQATGKERELDAAITWIGGRTYYADSVKGRFTISRDNAKNTVYLQMNSLKPEDTAVYYCAAAYPLDFWFGFEYDYWGQGTQGTVSS | high polyreactivity
QVQHVESGRGLVQAGGSLRLICAASGRTFGRNAMGWYRQAPGQERELVAAITSGGSTSYADSVKGRFTISRDNAKNPVYLQMNSLKPEDTAVYYCRQFSVWGYDYWGQGTQLTVSS | high polyreactivity
QVQHVESGRGLVQAGGSLRLSCAASGITFRYYAMGWYRQAPGKERELVAAISRGTSTKYADSVKGRFTISRDNAKNTVYLQMNSQKPEDTAVYYCAVYGYWSKSDYWGQGTQVTVSS | low polyreactivity
QVQHVESGRGLVQAGGSLRLSCAASGSIFSSYARGWSREAPGKERELVAAISQSGGDTYYADSVKGRFTISRDNAKNTVYLQMKSLKPEDTAVYYCAASVWYYPMDYWGQGTQVTVSS | low polyreactivity
QVQHVESGRGLVQAGGSLRLSCAGSGFIFYKYAMGWYRQAPGKERELVAAITRGGSTNYADSVKGRFTISRDTAKNTVFLQMNSLKPEDTAVYYCAAGNRYGVRQLYQIVTRYYWGQGTQVTVSS | high polyreactivity
QVQHVESGVGLDQAGGSLRLSCAASGSIFYWNAMGWYRQAPGKEREFVATITITTSTNYADSVKGRFTISRDNAKNPVNLQMNSLKPEDTAVYYCNAGAPYRYLDEYNYWGQGTKVTVSS | low polyreactivity
QVQHVESGVGLVQAGGSLRLSCAASGFIFTINAMGWYRQAPGKERELVAAISWSGGRTYYADSVKGRFTISRDNAKNTVYLQMNSLNPEDTAVYYCNAYPATQYDYESWGQGTQGTVSS | high polyreactivity
QVQHVESGVGLVQAGGSLRLSCAASGRIFVFYTMGWYIQAPGKERELVARISSGGSKNYADSVKGRFTISRDNAKNTVYLQMNSLKPEDTAVYYCNAAYARGRAGYYYWGQGTQVTVSS | high polyreactivity
QVQHVESRGGLVQAGGSLRLSCAASGSTFDGNAMGWYRQAPGTETELVAGISYRGGSTYYADSVKGRFTISRDYAKNSVYLQMNRLKPEDTAVYYCAADDYVYWLFDYWGQGTQVTVSS | low polyreactivity
QVQHVESVGGLVQAGGSLRLSCAASVSTFYFYAMGWYRQAPGKERELVAVISSGGRTYYADSVKGRFTISRDKAKNTVYLQMNSLKPEDTAVYYCAASWPSSLTYYYWGQGTQVTVSS | low polyreactivity
QVQHVESVGRLVQAGGSLRLSCAASGFTFKYYAMGWYRQAPGKERELVAVISSSGGSTYYADSVKGRFTISRDNAKNTVYLQMNSLKPEDTAVYYCAAELVYRYFVKDADDYWGQGTQVTVSS | low polyreactivity
QVQHVETGGGLVQAGGSHRLSCAASGLIFDYNAMGWYTQAPRKERELDADISSGGSTYYADSVKGRFTISSDNGKNSVYLQMNSLKTEDTAVYYCATRRQAQYTRYYGSRQFYYWGQGTQVTVSS | high polyreactivity
QVQHVETGGGLVQAGGSLRLSCAASGLAFAMGWYSQAPGTERELVASITGSGDSTYYADSVKGRFTISRDNAKNTVYLQMNSQKPEDTAVYYCGARTYYNYAPRYYYWGQGTQVTVSS | low polyreactivity
QVQHVQSGGGLVQAGGSLRLSCAASGYIFWSYEIGGYRQAPGKERELDATITSGDSTYYADSVKGRFTISRDNAKNTVYLQMKSLKPEDTALDYCAACTYYRLTYWLREYDYSGQGTQVTVSS | low polyreactivity

Sequence | polyreactivity (PSR sort gate)
QVQIEESGGGLVQAGGSLRLSCAASGRTFNFYAMGWYRQATGKERELVAAISHGDSTYYADSVKGRFTISRDNAKNTVYLQMNSLKPEDTAVYYCAASQKYYLRKYEYWGQGTQVTVSS | low polyreactivity
QVQIEESGGGLVQAGRSHRLSCAASGSTFGSYAMRWYRQAPGKERELVAAISASGGSTYYADSVKGRFTISRDNAKHTVYLQMNSLKPEDTAVFYCATVYYSARYNYWGQGTQVTVSS | high polyreactivity
QVQIGESGGGLVQAGGSLRLSCAASGSTFWRYAMGWDRPATGKECELVASITGGGGSTYYADSVKGRFTISRDNAKNTVDLQMHRLKPEDNAVYSCNARRYYRVDSYDYWGQGTQVTVSS | high polyreactivity
QVQILESGGGLVQAGGSLRLSCAASGFTFTGYALGWYSQAPGKERELVAAINARATSTYYADSVKGRFTISRDNAMNHVYLQIKSLIPEDTAVYFCAATFYRRYVDLGYWGQCTQVTVSS | high polyreactivity
QVQIVDSGGGLVQAGGSLRLSCAASGSTFIPNDMGWYRQAPGKERELVAAITVSGDDTYYADSVKGRFTISRDNAKNTVYIQMNSLKPDDTAVYYCNVDDPFYSGVVVFDYWGQGTLVTVSS | low polyreactivity
QVQIVESCGGLVQAGGSHRLSCAASGSTFVPNAMGWYRQAPGKEREFVAAISRIGGTYYADSVKGRFTISRDNEKNTVYLLMNCLKPEDNAVYYCAAEPSSVGYHVEYDYWGQGTQVTVSS | low polyreactivity
QVQIVESGAGLVQAGRSLRLSCAASGIIFHRYAMGWYRQAPGKERELVAAITWSGDSTYYADSVKGRFTISRDNAKNTVYLQMNSLKPEDTAVYYFWEYDYWGQGTQVTVSS | low polyreactivity
QVQIVESGAGLVQPGGSLRLSCAASGRTFPLYAMGWYRPAPGKEREFVAAITVSGVSTSYADSVKGRFTISRDNAKNTVYLQMNSLKPEDTAVYYCAADYYIWTYWDVYYWGQGTQVTVSS | high polyreactivity
QVQIVESGGCLVQAGGSLRLSCAASGFTLFLNSMGWYRQAPGQERELVAAISKSDGITYYADSVKGRFSISRDNAKNTVYLKMNSLKPEDTAVYYCNADARGWSVWDPGEYNYWGQGTQVNVSS | low polyreactivity
QVQIVESGGGKVQEGGSLRLSCAASGITFTWYDMGWYRQAPGKERELVAAITTDGGSTYYADSVKGRFTISRDNAKNTVYLQINSLKPEDTAVYYCAAAGYVPFPVVYEYWGQGTQVTVSS | high polyreactivity
QVQIVESGGGLFQAGGSLRISCAASGRPFAPNAMGWYRQAPAKERELVAAITGRGGRTYYADSVKGRFTISRDNANNTVYLQMNSEKPADTAVYYCAYFIAPWGLDFWGQGTEVTVSS | high polyreactivity
QVQIVESGGGLVHAGGSLRLSCAASGRNIPPYVIAWYRQAPGKEREMVAAMSWRGGNTYYADSVKGRFTISRDNAKNTVYLQMNSLKPEDTAVYYCAAKAYRRYSIPPYGYWGQGTQVTVSW | low polyreactivity
QVQIVESGGGLVHAGGSLRLSCAASGSIYKRYAMGWYRQAPGKERELVAAIRWSGGSTYYADSVKGRFTISRDNAMNTVFLQMNSLKPEDTAVYYCARDGWGRLYGMGYWGQGTQVTVSS | low polyreactivity
QVQIVESGGGLVPAGCSLRLICAASGFTYALYAMGWYRQAPGKETELVAANTYRGGSTYDADSVKWRFTISRDNAKNTVYLQLISLKPEDTAVYYCNAGGLWFPGVPDYDYWVQGTQVTVSS | high polyreactivity
QVQIVESGGGLVQAAGSLRLSCAASGRTFGYYAMGWYREAPGKEREMVAAITSCGRNTYYADTVKGRFTISRDNAKNNVYLQMNRLKPEDTAVYYCNTVYHAYWGKCVNYWGQGTQVTVSS | high polyreactivity
QVQIVESGGGLVQAGGILRLSCAASGRIFWRNAMGWYRQAPGKEREFVAAITYTAGRTYYADSVKGRFTISRDNSKITVYLQMNSLKPEDTAVYYCAAGSRRPGGTGYDHWVQGTQVTVSS | low polyreactivity
QVQIVESGGGLVQAGGILRLSCAASGRIFYTNAMGWYRKAPAKERELVAAIDNSDSTTYYADSVKWRYTISRDNAKNTVYLQMNSLKPEDTAVYYCAAESYLYTVTFEYWGQGTQVTVSS | high polyreactivity
QVQIVESGGGLVQAGGSLPLSCADYGLIFPDYAMGCYRQAPGKEREFVASIWRGGTTYYADSVKGRFTISRDNAKNTFYFKINSLKPEDTAVYYCASRYFHRGLVFPFTKYDYWGLGTQVTVSS | high polyreactivity
QVQIVESGGGLVQAGGSLRISCAASGRTFYWNAMGWNREAPGKEMELVSAISDGGGSTYYADSVKGRFSISRDNAKNTVYLQMNSLKPEDTAVYYCNTPDNQDKPYPGYDYWGQGTQVTVSS | low polyreactivity
QVQIVESGGGLVQAGGSLRLRCAASGRTFRDNAMGWSRQAPGKERELVAAIDIDSSTYYADSVKGRFTISRDNAKNTVYLQMISLKPEDTAVYYCAAESYHDGIGFPDYEYWGQGTQVTVSS | low polyreactivity
QVQIVESGGGLVQAGGSLRLSCAASGFIFGPYAMGWYRQAPGKERELVAAMSRSGGDTYYADSVKGRFTISRDFEKNTVYLQMNSLKPEDTAVYYCAAVGKYSAYNYWGQGTQVTVSS | high polyreactivity
